Measurements published in patent US20200234789A1, “DESIGNED PROTEINS FOR LIGAND BINDING” (THE REGENTS OF THE UNIVERSITY OF CALIFORNIA, priority 2017, published 2020).

What was measured:
[1] = Pump-probe transient absorption spectroscopy of bound (CF3)4PZn at 21 and 100° C.; type: physicochemical; conditions: non-natural porphyrin (CF3)4PZn
Description: (§1) FIGS. 3A-3D. Biophysical characterization of apo- and holo-PS1. FIG. 3A: Electronic absorption and emission spectra of (CF3)4PZn/PS1 holo-protein and (CF3)4PZn in toluene solvent. […] FIG. 3B: Determination of KD by apo-PS1 titration into a buffer solution (100 mM NaCl, 50 mM NaPi, pH 7.5) of (CF3)4PZn with 1% w/v octyl-b-D-glucopyranoside. […] FIG. 3C: Circular dichroism (CD) spectra of apo- and holo-PS1 in 50 mM NaPi, 100 mM NaCl, pH 7.5 as a function of temperature. The transitions appear reversible based on the fact that the spectra are identical after cooling to room temperature. Units are in molar residue ellipticity. […] FIG. 3D: Pump-probe transient absorption spectra of (CF3)4PZn bound in the interior of holo-PS1 at 21° C. and 100° C. […] Inset exemplifies identical transient dynamics (primarily intersystem crossing from S1 to T1) at ΔAbs.=482 nm (scaled). […]
Ultrafast transient absorption spectra were obtained using standard pump-probe methods^9 with a time resolution of approximately 200 fs. Elevated temperature experiments were performed in a custom-made temperature block of anodized aluminum, the temperature of which was controlled by heating rods and monitored by a pair of thermocouples wired to a PID through a solid-state relay. […]

[2] = Hydrogen-deuterium exchange measurements by 2D 15N HSQC NMR; type: physicochemical
Description: FIGS. 5A-5F. Apo- and holo-PS1 share similar folded cores and differ in the binding region. FIG. 5A: 2D ^1H-^15N HSQC spectra acquired for apo- and holo-PS1. Experimental conditions: 0.78 mM at 298K, 50 mM NaPi, 100 mM NaCl, pH 7.5, in 5% D2O. Resonance assignments are indicated using the one-letter amino acid code. Signals arising from side chains (Asn HD2/ND2, Gln HE2/NE2, Arg HE/NE and Trp HE1/NE1) are also labeled. The residues belonging to the binding region and folded core are color-coded as in (FIG. 5B). Non-helical residues are labeled in cyan font face. […] A dashed box surrounds 90% of the backbone resonances of apo-PS1 and is also placed at the same position in the holo-PS1 spectrum. Arrows point to resonances of residues within the binding region that change dramatically upon binding of the cofactor. FIG. 5B: Solution NMR structures of apo-PS1 and holo-PS1. […] FIG. 5C: Hydrogen-deuterium exchange protection factors (PF) measured for apo- and holo-PS1, mapped onto the centroid structure of holo-PS1. Backbone amide nitrogens of residues with determined PFs are shown as spheres. […]
For the measurements of H/D exchange rates, a series of 2D ^15N HSQC spectra were obtained on a 900 MHz Bruker Avance II spectrometer. The first spectra were recorded 9 minutes after the dilution of 100 μl of a high concentration sample in H2O (2 mM for apo and 1.2 mM for holo) into 200 μl D2O buffer. […]

[3] = Porphyrin binding titration to determine KD (apo-PS1 titrated into (CF3)4PZn, absorbance at 423 nm); conditions: water-insoluble porphyrin solubilized with 1% w/v octylglucopyranoside detergent; 100 mM NaCl, 50 mM NaPi, pH 7.5; read-out: dissociation constant of binding, KD
Description: as §1
2 μM of (CF3)4PZn was solubilized in a 1 mL solution of 50 mM NaPi, 100 mM NaCl, pH 7.5 buffer by inclusion of 1% w/v octyl-b-D-glucopyranoside. 2 μL of a 102 uM stock of apo-PS1 (0.2 μM aliquots) was titrated into the 1 mL solution containing the porphyrin, and an electronic absorption spectrum was measured until >2.5 equivalents of protein were added. Absorbance changes at 423 nm, due to His-Zn coordination-induced spectral shifts of the porphyrin, were fit to a single-site, protein-ligand binding model.

[4] = Analytical ultracentrifugation (equilibrium sedimentation), oligomeric state; type: physicochemical; conditions: analytical ultracentrifugation and gel filtration
Excerpt: FIG. 7A-7B. […] FIG. 7A: Analytical ultracentrifugation. Solutions of apo- and holo-PS1 were centrifuged at speeds ranging from 25,000 r.p.m. to 45,000 r.p.m. and monitored by absorbance at 280 nm. Parameters were globally fit to the data. Single-species fitting agrees well with the data over the entire range and yields the molecular weight of apo-PS1 […] and holo-PS1 12.24±0.91 kD, which agrees well with the 12.86 kD weight of PS1. […] Partial specific volumes were estimated from SEDNTERP^15 for amino acid side chains. FIG. 7B: Analytical gel filtration analysis of apo- and holo-PS1. Detection wavelengths are labeled as the same color as their respective curves. […] The small peak near 1.05 ml elution volume in holo-PS1 is unbound (excess), aggregated porphyrin eluting in the void volume of the superdex 75 5/150 column. Samples were run at concentrations of 100 μM and 37 μM for apo and holo, respectively, in 50 mM NaPi, 150 mM NaCl, pH 7.0 buffer.
The oligomeric state of apo- and holo-PS1 were determined by analytical equilibrium sedimentation performed at 25° C. using a Beckman XL-I analytical ultracentrifuge. Ultracentrifugation was conducted at speeds of 25K, 30K, 35K, 40K and 45K r.p.m., and the radial gradient profiles were obtained by absorbance at 280 nm. […]

B1: PS1: de novo designed porphyrin-binding four-helix bundle protein; designed sequence SEQ ID NO:1, expressed His-tag-cleaved sequence SEQ ID NO:2 (protein)
chain: SEFEKLRQTGDELVQAFQRLREIFDKGDDDSLEQVLEEIEELIQKHRQLFDNRQEAADTEAAKQGDQWVQLFQRFREAIDKGDKDSLEQLLEELEQALQKIRELAEKKN
[1]
  temperature up to which the porphyrin is bound: up to 100 °C
[2]
  protection of the backbone surrounding the apolar core from solvent H/D exchange: highly protected from exchange
[3]
  Kd: 45 nM
[4]
  oligomeric state in solution: monomeric
